Assay results from patent US20170313762A1.

Target: vasopressin V2 receptor-RlucII (hV2R wt-RlucII) (human)
Test: cell-based or functional assay

EC50 of agonist-promoted receptor internalization (decrease of BRET between receptor-RlucII and lyn-rGFP): 2200 nM
Substance: Oxytocin (from UniProt P01178 20-28) (peptide)
